Patent US20250197491A1 (published 2025)
Positions count from the first letter of the chain named.

B1: Antibody 2 (antibody, V domains shown)
VH: QVQLVESGGDLVKPGGSLRLSCAASGFTFRDYYMSWIRQAPGKGLEWVSYISPSGSTIFYADSVKGRFTISRDNAKNSLYLQMNSLRAEDTAVYYCAKDRVRLFDYWGQGTLVTVSS
VL: EIVLTQSPATLSLSPGERATLSCRASQSVSSSYLAWYQQKPGQAPRLLIYGASTRATGIPARFSGSGSGTDFTLTISRLEPEDFAVYYCQQRSNWPITFGQGTRLEIK
B2: Antibody 4 (antibody, V domains shown)
VH: QVQLVQSGAEVKKPGASVKVSCKASGYTFTSYGISWVRQAPGQGLEWMGWISAYNGNTNYAQKLQGRVTMTTDTSTSTAYMELRSLRSDDTAVYYCARSYSGSYWWFDPWGQGTLVTVSS
VL: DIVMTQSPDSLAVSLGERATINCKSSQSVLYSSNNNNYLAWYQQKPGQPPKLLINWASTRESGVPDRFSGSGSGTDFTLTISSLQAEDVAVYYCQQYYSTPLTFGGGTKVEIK
B3: Antibody 3 (antibody, V domains shown)
VH: B2 VH with Y104H
VL: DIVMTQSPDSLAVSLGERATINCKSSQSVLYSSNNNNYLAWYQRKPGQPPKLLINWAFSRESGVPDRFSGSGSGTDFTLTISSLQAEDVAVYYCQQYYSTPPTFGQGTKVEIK
B4: Antibody 1 (antibody, V domains shown)
VH: QVQLVESGGGLVKPGGSLRLSCAASGFTFSDYYMSWIRQAPGKGLEWVSYISSSGSIKKYADSVKGRFTISRDNAKNSLYLQMNSLRGEDTAVYYCARTNWHFDYWGQGTLVTVSS
VL: EIVLTQSPGTLSLSPGERATLSCRASQSVSSSYLAWYQQKPGQAPRLLIFGASTRATGIPDRFSGSGSGTDFTLTISRLEPEDVAVYYCQQYYSTPFTFGPGTKVDIK
B5: Antibody 5 (antibody, V domains shown)
VH: QVQLVESGGGLVKPGGSLRLSCAASGFTFSDYYMTWIRQAPGKGLEWVSYISISGITRYYADSVKGRFTISRDNAKNSLYLQMNSLRAEDTAVYYCARDQTGYFDYWGQGTLVTVSS
VL: DIVMTQSPATLSVSPGEKTTLSCRASQSFSSNLAWYQQKPGQAPRLLIYGASTRATGIPARFSGSGSGTEFTLTISSLQSEDFAVYYCQQYINWPHTFGQGTKVEIK

molecular target: Human full length LILRB1 (UniProt Q8NHL6 24-650); experiment: flow cytometry, HEK293 cells overexpressing LILRB1
Sequence (Q8NHL6 24-650): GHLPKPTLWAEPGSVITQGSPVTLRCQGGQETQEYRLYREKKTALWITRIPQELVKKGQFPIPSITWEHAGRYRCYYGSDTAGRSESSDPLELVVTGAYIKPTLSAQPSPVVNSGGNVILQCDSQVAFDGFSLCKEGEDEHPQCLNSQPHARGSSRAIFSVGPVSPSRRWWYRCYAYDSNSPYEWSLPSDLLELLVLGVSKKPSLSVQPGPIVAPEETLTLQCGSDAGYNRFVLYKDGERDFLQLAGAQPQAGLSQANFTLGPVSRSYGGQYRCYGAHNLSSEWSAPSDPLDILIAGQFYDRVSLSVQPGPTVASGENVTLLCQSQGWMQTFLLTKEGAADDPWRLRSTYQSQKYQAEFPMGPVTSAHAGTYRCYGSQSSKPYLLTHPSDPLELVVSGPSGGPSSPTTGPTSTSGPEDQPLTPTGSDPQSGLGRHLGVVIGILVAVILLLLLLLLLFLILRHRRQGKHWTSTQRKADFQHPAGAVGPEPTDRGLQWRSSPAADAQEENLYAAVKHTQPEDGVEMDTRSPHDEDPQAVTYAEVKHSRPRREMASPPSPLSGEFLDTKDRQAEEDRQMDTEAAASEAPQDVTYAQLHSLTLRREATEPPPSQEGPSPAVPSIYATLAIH

B1 was tested. Which EC50 did it give?
Its EC50 is 0.52 nM.

With B2 as the binder, how does the EC50 read?
The EC50 was 1.21 nM.

With B3 as the binder, how does the EC50 read?
The EC50 was 1.57 nM.

For B4, which EC50 is on record?
Its EC50 is 0.37 nM.

How did the EC50 turn out when B5 was run?
The EC50 was 2.24 nM.
